Test results: patent US20250243265A1 (published 2025)
Substitutions are numbered along the chain they refer to. Where two headings read alike, the source gives them in different places.

B1: 1D8 Fab displayed on phage (Fab, V domains shown)
VH: EVQLVESGGGLVQPGGSLRLSCAASGFTFTDYDIHWVRQAPGKGLEWVAGISPYGGYTDYADSVKGRFTISADTSKNTAYLQMNSLRAEDTAVYYCAREAGSRLLSVMDYWGQGTLVTVSS
VL: DIQMTQSPSSLSASVGDRVTITCRASQDVSTAVAWYQQKPGKAPKLLIYSASFLYSGVPSRFSGSGSGTDFTLTISSLQPEDFATYYCQQSYTTPPTFGQGTKVEIK
B2: 1D8.4F5 Fab displayed on phage (Fab, V domains shown)
VH: B1 VH with Y32D, G50E
VL: B1 VL with Y92F

Experiments:
[1] = molecular target: T1, linear diubiquitin (Boston Biochem) (UniProt P0CG48 1-152); assay: phage competition ELISA; fit parameter m3
[2] = molecular target: T1, linear diubiquitin (Boston Biochem); assay: phage competition ELISA; fit parameter m3; remark: listed apart in the source

| Binder | IC50 [1] [µM] | IC50 [2] [µM] |
| --- | --- | --- |
| B1 | 5.77 | – |
| B2 | – | 2.21 |
